Test results as given in patent US20060257867.

Target: T1, ghrelin (D-enantiomer, rat) (Rattus norvegicus) (UniProt Q9QYH7)
T1 sequence: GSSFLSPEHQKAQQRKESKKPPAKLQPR
Experiment: pulldown
Details: bead assay, active conformation; 37 C

Kd, < 0.1 µM:
GGAGCUCAGACUUCACUCGUGUGAGGUAGUAAAAAAAAAAAAAAAACAUAAAUCCGAAGGUAACCAAUCCUACACGUACCACUGUCGGUUCCAC [G5], GGAGCUCAGACUUCACUCGUGUGAGGCAAUAAAACAUAAGUCCGAAGGUAACCAAUCCUACACGUACCACUGUCGGUUCCAC [B7], GGAGCUCAGACUUCACUCGUGUGAGGCAAUAAAACUUAAGUCCGAAGGUAACCAAUCCUGCACGUACCACUGUCGGUUCCAC [E12], GGAGCUCAGACUUCACUCGUGUGAGGUAGUAAAAAAAAAAAACGUAAAUCCGAAGGUAACCAAUCCUACACGUACCACUGUCGGUUCCAC [A12], GGAGCUCAGACUUCACUCGUGUGAGGCAGUAAAACUUAAGUCCGAAGGUAACCAAUCCUACACGUACCACUGUCGGUUCCAC [G2], GGAGCUCAGACUUCACUCGUGUGAGGUAGUAAAAAAAAAAACGUAAAUCCGAAGGUAACCAGUCCUACACGUACCACUGUCGGUUCCAC [F5], GGAGCUCAGACUUCACUCGUGUGAGGUAGUAAAAAAAAAACGUAAAUCCGAAGGUAACCAAUCCUACACGUACCACUGUCGGUUCCAC [A3], GGAGCUCAGACUUCACUCGUGUGAGGCAAUAAAAACUUAAGUCCGAAGGUAACCAAUCCUACACGUACCACUGUCGGUUCCAC [E3], GGAGCUCAGACUUCACUCGUGUGAGGCAAUAAAACUUGUAAGUCCGAAGGUAACCAAUCCUACACGUACCACUGUCGGUUCCAC [B12]
